Source: patent US20220213140A1

Legend:
tocilizumab [1] = assay: BLItz biolayer interferometry; biotinylated ligand immobilized on the chip, tocilizumab at 41.34, 82.68 and 165.3 nM in PBS (+0.1% BSA); same fitted value in all three rows of the table [C]
tocilizumab [2] = assay: BLI (BLItz), biotinylated ligand on sensor, antibody in solution

Sequence of tocilizumab (VH, as listed by the source, chain 1 of 2): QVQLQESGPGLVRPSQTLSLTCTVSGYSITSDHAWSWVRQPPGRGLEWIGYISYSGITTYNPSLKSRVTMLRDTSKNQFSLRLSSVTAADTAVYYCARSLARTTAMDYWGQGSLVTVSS
Sequence of tocilizumab (VL, as listed by the source, chain 2 of 2): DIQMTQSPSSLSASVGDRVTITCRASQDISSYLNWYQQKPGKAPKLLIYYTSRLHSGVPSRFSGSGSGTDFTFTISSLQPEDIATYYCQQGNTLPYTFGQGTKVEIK

- koff (tocilizumab [1]): 0.00281 s⁻¹
- kon (tocilizumab [1]): 346000 M⁻¹ s⁻¹
- Kd (tocilizumab [2]): 8.11 nM
Substance: ligand of MabSelect SuRe
